For series [1], the target named is T1, Recombinant Ce C19L1(1-277), untagged (C. elegans, UniProt O16216 1-277).
T1 sequence: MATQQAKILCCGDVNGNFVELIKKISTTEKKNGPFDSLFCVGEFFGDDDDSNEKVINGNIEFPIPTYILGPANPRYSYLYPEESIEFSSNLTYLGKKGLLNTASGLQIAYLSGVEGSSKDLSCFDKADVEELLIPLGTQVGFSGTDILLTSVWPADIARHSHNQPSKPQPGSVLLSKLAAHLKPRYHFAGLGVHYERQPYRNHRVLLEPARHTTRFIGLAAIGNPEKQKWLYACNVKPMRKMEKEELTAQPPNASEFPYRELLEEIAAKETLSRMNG
Put plainly: pull-down.

The target in series [2] is Recombinant Ce DHX15 (10x-His-FLAG-3C-ceDHX15) (C. elegans, UniProt Q20875 1-739). Put plainly: pull-down.
The series “cryo-EM structure” concerns the molecule itself. Put plainly: cryo-EM structure.
Series [3] addresses T2, Recombinant Ce C19L1 full-length protein, untagged (C. elegans, UniProt O16216 1-533).
T2 sequence: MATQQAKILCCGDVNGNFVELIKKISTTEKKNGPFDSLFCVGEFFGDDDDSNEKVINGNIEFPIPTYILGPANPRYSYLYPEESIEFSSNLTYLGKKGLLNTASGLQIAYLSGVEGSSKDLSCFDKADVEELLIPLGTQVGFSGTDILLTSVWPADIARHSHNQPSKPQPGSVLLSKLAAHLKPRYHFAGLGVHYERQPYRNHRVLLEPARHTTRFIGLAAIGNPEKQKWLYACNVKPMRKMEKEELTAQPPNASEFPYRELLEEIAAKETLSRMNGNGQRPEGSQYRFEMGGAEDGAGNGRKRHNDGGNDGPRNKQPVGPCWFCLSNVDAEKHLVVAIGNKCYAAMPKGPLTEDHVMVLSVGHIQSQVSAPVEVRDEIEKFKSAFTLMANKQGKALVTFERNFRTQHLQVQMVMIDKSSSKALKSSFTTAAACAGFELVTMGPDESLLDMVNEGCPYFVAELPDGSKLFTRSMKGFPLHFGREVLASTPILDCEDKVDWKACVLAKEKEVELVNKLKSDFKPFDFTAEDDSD
Put plainly: pull-down.

Recombinant Ce DHX15 (10x-His-FLAG-3C-ceDHX15), sequence (Q20875 whole entry): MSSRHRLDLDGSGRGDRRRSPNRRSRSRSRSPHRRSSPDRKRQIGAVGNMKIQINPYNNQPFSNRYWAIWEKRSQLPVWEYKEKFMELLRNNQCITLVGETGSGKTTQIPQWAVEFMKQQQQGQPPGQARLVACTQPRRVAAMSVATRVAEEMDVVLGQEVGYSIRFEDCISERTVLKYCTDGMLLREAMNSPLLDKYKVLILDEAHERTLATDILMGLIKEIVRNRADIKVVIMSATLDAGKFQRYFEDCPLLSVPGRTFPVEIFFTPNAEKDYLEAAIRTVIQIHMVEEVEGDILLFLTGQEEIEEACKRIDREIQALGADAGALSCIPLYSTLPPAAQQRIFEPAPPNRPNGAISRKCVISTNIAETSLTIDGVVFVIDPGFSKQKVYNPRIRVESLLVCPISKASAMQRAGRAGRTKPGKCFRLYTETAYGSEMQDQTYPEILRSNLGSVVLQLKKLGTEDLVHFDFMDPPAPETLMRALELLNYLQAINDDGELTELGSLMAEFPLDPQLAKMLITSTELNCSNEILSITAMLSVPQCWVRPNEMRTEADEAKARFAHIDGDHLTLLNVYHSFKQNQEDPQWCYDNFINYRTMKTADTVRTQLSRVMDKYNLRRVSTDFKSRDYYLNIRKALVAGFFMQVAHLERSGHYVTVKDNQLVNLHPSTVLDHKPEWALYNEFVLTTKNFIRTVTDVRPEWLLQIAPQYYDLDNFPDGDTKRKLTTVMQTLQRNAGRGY

On to fluorescein-SMNKGNISFVRGAGKTVQQNTTENPDEIDLD-biotin [ceSYF1(788-818)-wildtype peptide], for which the binding result in series [1] and in series [2] was “binds” each time.

B1: 3xFLAG-PRP19 (C. elegans, prp-19) (natural protein)
chain: MSFVCGISGELTEDPVVSQVSGHIFDRRLIVKFIAENGTDPISHGELSEDQLVSLKSGGTGSAPRNVSGTSIPSLLKMLQDEWDTVMLNSFSLRQQLQIARQELSHSLYQHDAACRVISRLSKELTAAREALSTLKPHTSAKVDDDVSIDESEDQQGLSEAILAKLEEKSKSLTAERKQRGKNLPEGLAKTEELAELKQTASHTGIHSTGTPGITALDIKGNLSLTGGIDKTVVLYDYEKEQVMQTFKGHNKKINAVVLHPDNITAISASADSHIRVWSATDSSSKAIIDVHQAPVTDISLNASGDYILSASDDSYWAFSDIRSGKSLCKVSVEPGSQIAVHSIEFHPDGLIFGTGAADAVVKIWDLKNQTVAAAFPGHTAAVRSIAFSENGYYLATGSEDGEVKLWDLRKLKNLKTFANEEKQPINSLSFDMTGTFLGIGGQKVQVLHVKSWSEVVSLSDHSGPVTGVRFGENARSLVTCSLDKSLRVFSF
The stoichiometry N is a count of units in the complex or per binding partner. For B1, the “stoichiometry N” value in the series “cryo-EM structure” was 4.

Regarding fluorescein-EDEKNKLSAKILKAEMKGDTDLVKKLKRKLESM-biotin [ceC19L2(75-106)-wildtype peptide], in series [3], the binding result was “binds”.

These data come from paper PMC7616679 (Nature, 2024).
